Results taken from patent US20030190739A1, “Tankyrase2 materials and methods” (priority 1999, published 2003).

Experiment: Poly(ADP-ribose) polymerase activity assay (32P-NAD+, SDS-PAGE, autoradiography)
Type: biochemical
Settings: 250 ng protein, 10 min at room temperature, 2.5 μM unlabeled NAD+
Protocol: For poly(ADP-ribose) polymerase activity assays, reagents were obtained from Sigma unless otherwise indicated. PARP1A/TANK2B (250 ng) protein was incubated for 10 min at room temperature in Assay buffer (total volume of 20 μL) [100 mM Tris-HCl, pH 8.0, 10 mM MgCl2, 10% glycerol, 1.5 mM DTT (Boehringer Mannheim/Roche Molecular Biochemicals), 2.5 μM unlabeled NAD^+, 16.7 μg/mL E. coli Strain B DNA, and 0.33 μCi γ-[^32P]-NAD^+ (NEN, Boston, Mass.). Reactions were stopped by boiling in SDS running buffer and separated by SDS-polyacrylamide gel electrophoresis (SDS-PAGE). Autoradiography was used to visualize labeled protein. Addition of poly(ADP-ribose) polymers to protein substrate results in an increase in molecular weight of the protein, and consequently causes the protein to run higher on SDS PAGE. Also, the level of poly(ADP-ribose) polymers added to the protein substrate can vary with each single protein molecule, resulting in labeled proteins with different molecular weights, which appears on the autoradiography film as a ladder or smear [for example, see Smith et al. Science 282:2484-7 (1998)]. […] The PARP1A/TANK2B poly(ADP-ribose) polymerase reaction produced a ladder of labeled protein from approximately 136 kDa to 250 kDa.

In the case of “PARP1A/TANK2B: Fusion protein containing aa 1-662 of PARP1 fused upstream of aa 996-1385 of TANK2 (SEQ ID NO:178)”, the “intrinsic poly(ADP-ribose) polymerase activity” value is reported as “possessed intrinsic poly(ADP-ribose) polymerase activity”.
